This note sets out measurements from paper PMC4022466, “Spermatid Cyst Polarization in Drosophila Depends upon apkc and the CPEB Family Translational Regulator orb2”.

The series deals with T1, Orb2-RRM (GST-Orb2 C-terminus) (UniProt Q9VSR3 447-704).
T1 sequence: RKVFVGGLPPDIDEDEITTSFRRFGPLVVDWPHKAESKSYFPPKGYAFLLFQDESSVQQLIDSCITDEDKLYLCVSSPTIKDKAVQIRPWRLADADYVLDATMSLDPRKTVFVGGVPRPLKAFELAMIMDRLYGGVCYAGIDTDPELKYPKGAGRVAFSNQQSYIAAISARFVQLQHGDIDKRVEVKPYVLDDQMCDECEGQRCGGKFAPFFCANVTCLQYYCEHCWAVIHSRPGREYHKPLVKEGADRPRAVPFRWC
Put plainly: competition; 100-400 fold excess cold against RA-GS probe; 25 mM Tris pH 7.5, 10 mM EDTA (rest of buffer and temperature not in the material). As to conditions: protein: recombinant; tags: GST.

B1: Comp-CPE (competitor A) (ssRNA)
RNA: ACUUUUGUUUUUAAUGCAUUCCAC
As to B1, the binding result is “binds”.
